Source: PMC7866087, “Evaluation of Computationally Designed Peptides against TWEAK, a Cytokine of the Tumour Necrosis Factor Ligand Family” (International Journal of Molecular Sciences, 2021)

Tested on: TWEAK-Fn14 signalling pathway, BRV5 cells
Assay: Cell-based screening of pooled peptides, gene expression microarray in TWEAK-stimulated BRV5 cells
Design: species or system human
Settings: 6 h; for BIRC2 expression Z-Score / HSP90B1 expression Z-Score / IL6 expression Z-Score / JUN expression Z-Score / MAP4K4 expression Z-Score / MAPK14 expression Z-Score / NFKB2 expression Z-Score / TNFRSF12A expression Z-Score / TRAF2 expression Z-Score: BRV5 + TWEAK, normalized to NARS2
Protocol: To optimize resources and rationalize the analysis, we ran the screening by pooling the 50 peptides into six groups, i.e., Pool 1 to 6, containing […] peptides each and displaying similar MW (Supplementary Materials Table S1). We monitored the activity of pooled peptides on TWEAK-Fn14 signalling pathways following the design described in Material and Methods. BRV5 cells were cultured in the presence or absence of TWEAK and treated with peptides at different time points.
As a preliminary study, we performed an experiment with 435-P and BRV5 cells to assess the effect on the level of expression on the selected genes in cultures with or without TWEAK (Supplementary Materials Figure S2A). Negative controls without pool 1 peptides were included in the protocol to avoid unspecific biases in the inhibition ratio. To achieve optimal conditions to measure peptide activity, preventing peptide degradation in the culture medium, the effect of peptides was evaluated by priming cultures with peptide every hour (0–5 h), every two hours (0, 2, and 4 h) and every three hours (0 and 3 h). In these experiments, the housekeeping gene NARS2 was used to normalize gene expression.
Three different cell lines were used in this study: BRV5, MDA-MB 435 (435-P), and HT29. The BRV5 is a highly metastatic brain cell line, obtained in one of our laboratories by primary culture from a brain of a nude mouse inoculated with human 435-Br1 brain metastatic cells, as previously described and used as a model to test the peptides in cell cultures. […] The triple negative 435-P cell line is a useful human breast cancer model that expresses both epithelial and melanocytic markers, and was included as the parental cell from which 435-Br1 metastatic variant was initially originated (both cell lines kindly provided by Dr Fabra at IDIBELL Institute, Hospitalet de Llobregat, Spain). Finally, HT29 human colon carcinoma cells obtained from the European Type Culture Collection (ECACC 91072201) were used as a positive control of TWEAK dependent Fn14 over-expressing cells to evaluate TWEAK-Fn14 axis of brain metastatic variants.
Appropriate cell culture conditions were established as the controls needed in the expression of genes with and without peptides and with and without TWEAK activation, both as pools and individually (see Supplementary Materials Figure S2). The protocol started with the seeding of 125,000 cells/well in 500 µL of culture media supplemented with 10% fetal bovine serum (CM+FBS10%) in 24-well dishes for 24 h before removing FBS (CM-FBS). After overnight starvation in CM-FBS culture, different peptide treatment conditions (at final concentration of 450 µM) were established in the presence or absence of TWEAK (25 ng/mL final concentration) (Peprotech EC, Ltd., London, UK). Some cells were treated with peptides at a single, unique, initial dose (time 0) while other were treated with repeated doses to account for the effect cell-culture degradation. These include a repeated treatment every hour (i.e., […]), every two hours (time 0, 2, and 4) and every three hours (time 0 and 3)—see Supplementary Materials Figure S2 for diagrammatic depiction. At time 6 (after six hours) cells were lysed and RNA extracted for transcriptomic analyses (see next). Cell were culture for six hours as this was the time needed to achieve the highest upregulation of the TWEAK-Fn14 axis upon TWEAK treatment as shown in previous time-course RT-PCR experiments (see Figure 2).
RNA from cells was extracted 6 h after treatments by direct lysis on the well. The RNeasy Micro kit (Qiagen, Hilden, Germany) was used to isolate total RNA from cell lysate following manufacturer’s protocols including an additional step of digestion with DNase I (Qiagen, Hilden, Germany). Total RNA concentration was measured in a NanoDrop 1000 spectrophotometer (Thermo Scientific, Waltham, MA, USA). […]

[1] = pools, BRV5 + TWEAK 25 ng/mL, 450 µM every hour

B1: tumour necrosis factor-like weak inducer of apoptosis (protein, UniProt O43508 94-249, looked up)
Tumor necrosis factor ligand …: SAPKGRKTRARRAIAAHYEVHPRPGQDGAQAGVDGTVSGWEEARINSSSPLRYNRQIGEFIVTRAGLYYLYCQVHFDEGKAVYLKLDLLVDGVLALRCLEEFSATAASSLGPQLRLCQVSGLLALRPGSSLRIRTLPWAHLKAAPFLTYFGLFQVH
BRV5 + TWEAK 25 ng/mL, peptides 450 µM every hour, versus T
  regulation of probe genes by pooled peptides: higher level of expression overall when compared to untreated and unstimulated cells
TWEAK, BRV5
  downstream activation of MAP4K4 (NIK), TRAF2, and BIRC2 (IAP2): occurred at 6 h in BRV5 cells
[1]
  BIRC2 mRNA expression (normalized to NARS2): 1.448
  HSP90B1 mRNA expression (normalized to NARS2): 8.392
  IL6 mRNA expression (normalized to NARS2): 0.0007818
  JUN mRNA expression (normalized to NARS2): 0.04566
  MAP4K4 mRNA expression (normalized to NARS2): 0.7707
  MAPK14 mRNA expression (normalized to NARS2): 0.5877
  NFKB2 mRNA expression (normalized to NARS2): 0.193
  TNFRSF12A mRNA expression (normalized to NARS2): 0.06934
  TRAF2 mRNA expression (normalized to NARS2): 0.0999
pools
  BIRC2 expression Z-Score: 1.233
  HSP90B1 expression Z-Score: -0.5008
  IL6 expression Z-Score: -1.234
  JUN expression Z-Score: -1.012
  MAP4K4 expression Z-Score: -0.5276
  MAPK14 expression Z-Score: 0.2377
  NFKB2 expression Z-Score: -0.03742
  TNFRSF12A expression Z-Score: -0.4905
  TRAF2 expression Z-Score: 1.245
pools, listed as T
  BIRC2 expression Z-Score: 1.2334
  HSP90B1 expression Z-Score: -0.5008
  IL6 expression Z-Score: -1.2337
  JUN expression Z-Score: -1.0121
  MAP4K4 expression Z-Score: -0.5276
  MAPK14 expression Z-Score: 0.2377
  NFKB2 expression Z-Score: -0.0374
  TNFRSF12A expression Z-Score: -0.4905
  TRAF2 expression Z-Score: 1.2452
